The results in this text go back to article PMC12170880.

What all share (conditions): EMSA: 10 mM Tris-HCl pH 7.5, 50 mM NaCl, 1 mM EDTA, 5% glycerol, 1 mg/mL BSA, 1 mM DTT; 30 min, room temperature; 6% native PAGE, 0.5x TBE
Series [1] deals with T1, HDIP1-c (Arabidopsis thaliana) (UniProt F4I0M4).
T1 sequence: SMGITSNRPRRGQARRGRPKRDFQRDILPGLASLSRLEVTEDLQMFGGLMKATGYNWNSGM
In words: EMSA. Background: A gel shift assay detects complexes by their altered migration in electrophoresis.

The target in series [2] is T1, HDIP1-c (Arabidopsis thaliana). In words: competition.
Series [3] deals with T2, HDIP1-a (Arabidopsis thaliana) (UniProt F4I0M4).
T2 sequence: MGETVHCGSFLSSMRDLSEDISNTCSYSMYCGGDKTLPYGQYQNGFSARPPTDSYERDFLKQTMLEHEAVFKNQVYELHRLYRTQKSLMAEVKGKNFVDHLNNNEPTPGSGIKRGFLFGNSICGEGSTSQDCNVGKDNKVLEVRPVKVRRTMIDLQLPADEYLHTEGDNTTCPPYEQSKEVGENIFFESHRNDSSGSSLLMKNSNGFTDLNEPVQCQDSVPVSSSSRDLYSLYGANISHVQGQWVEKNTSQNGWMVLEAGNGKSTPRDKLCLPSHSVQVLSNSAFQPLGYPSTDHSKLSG
In words: EMSA.

The target of series [4] is T3, HDIP1-d (Arabidopsis thaliana) (UniProt F4I0M4).
T3 sequence: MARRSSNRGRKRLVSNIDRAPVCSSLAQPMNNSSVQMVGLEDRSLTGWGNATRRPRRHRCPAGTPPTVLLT
In words: EMSA.

For series [5], the target named is T4, HDIP3-DBD (Arabidopsis thaliana) (UniProt Q9LMG4).
T4 sequence: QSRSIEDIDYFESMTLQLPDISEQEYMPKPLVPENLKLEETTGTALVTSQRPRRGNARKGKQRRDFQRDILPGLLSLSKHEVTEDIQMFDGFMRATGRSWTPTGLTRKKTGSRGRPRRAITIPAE
In words: EMSA.

The target in series [6] is T5, HDIP1-b (Arabidopsis thaliana) (UniProt F4I0M4).
T5 sequence: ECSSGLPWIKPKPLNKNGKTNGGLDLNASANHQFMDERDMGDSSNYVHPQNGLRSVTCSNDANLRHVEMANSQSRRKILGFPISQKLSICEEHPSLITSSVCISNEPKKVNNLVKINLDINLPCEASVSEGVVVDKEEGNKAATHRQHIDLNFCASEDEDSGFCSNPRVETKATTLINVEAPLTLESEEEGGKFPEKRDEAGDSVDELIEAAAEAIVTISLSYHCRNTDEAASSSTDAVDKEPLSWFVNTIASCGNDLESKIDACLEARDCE
In words: EMSA.

Regarding “CCACTCCACATAGCTACGTCACTTAAAGTCCCATAGTAACTAATTTTCTTTGAATGTTATAGCAAATTATTAGCAATGTATGATTCTTTGGGTCAAATCTTACACTAAAAACATGAAAATAATTTGAATATCAAGAGATTCATATATTCATATTTTATAACCAAAATATGTAGGGTCTAAATTATTGCTTCTTGACTAGG (double strand) [P2 (200 bp)]”, in series [1], the binding result is recorded as “binds”.

Consider “TGTGAAGAATGCAGTAAGAGGCAGTCAAAGATTCAAAGGGAAAAAAGTTTACGAAAACAAAAGATTATATTTTGGGAGTATTAGGCTGCCACGTGGAAACACTTGCACCGGCATTTGACCGTCGCCGACACATGACCTGGCACGTGCTAGAGACTGTCTTCTCTTCTTCTTCTTCTTTTTCCCTCACTGTTTCACGAACC (double strand) [P1 (200 bp)]”, for which the binding result in series [2] was “binds”; in series [3], “no binding”; in series [4], “no binding”; in series [1], “binds”; in series [5] it was “binds”; in series [6] it was “no binding”.

“TTCCTAAGAGGTCTAGATTGGTGCTTGGACTTTAATTTGGTCTTCGTCTCTCGTTCTCGTATTTATGCATTTTGAAACTCAAAAAAGGAAGAGAGAGAAGAATAATATGATTTTGGCTACTTGGTTTGGAAATAAGTTAATTAAGTAAAAGTGTATTGAGATATAATTCAATGGTACGTGTGTGAATCCAAAGTCGTGTT (double strand) [P3 (200 bp)]”: the binding result in series [1] is reported as “binds”.
